Experiment: yeast display, Sf9 membrane polyspecificity reagent, FACS + sequencing; frameworks hold sequencing errors
In short: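 Nanobodies from a synthetic yeast display library (Saccharomyces cerevisiae BJ5465), induced 36–48 hours with galactose, were stained 1 hour at 4 °C with 10% biotinylated, detergent-solubilized Sf9 membrane reagent, enriched on streptavidin microbeads, then FACS-sorted. Anti-HA (expression) and streptavidin (reagent binding) fluorescence set low and high (top ~1%) gates. Polyreactivity labels come from the gate of origin. Genes were colony-PCR amplified, MiSeq 2 × 250 sequenced and filtered by CDR length.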
In the case of “QVQLVESGGGLVQAGGSLRLSCAASGSTFSFNDRGWYRQAPGKERELVADISCSGDTTYADSVKGRFTISRDNAKNTVYLQMKSLKPEATAVYYCAARQYFRNYVYWGQGTQVTVSS”, the “polyreactivity (PSR sort gate)” value is reported as “high polyreactivity”.
With “QVQLVESGGGLVQAGGSLRLSCAASGSIFVGYDMGWYRQAPGKERDLVASINGGDSTNYADSVKGRFTISRDNAKYTVYLQMNSLKPEDTAVYYCAKDVTYTDEYDYWGQGTQVTVSS” the “polyreactivity (PSR sort gate)” value was “low polyreactivity”.
For “QVQLVESGGGLVQAGGSLRLSCAASGRIFGPYTMGWYRPAPGKEREFVAAISRSGDSTYYADSVKGRFTISRDNAKNTVYLHMNSLKPADTAVYYCAAKYGTRLTAYYYWGQGTQVTVSS”, the “polyreactivity (PSR sort gate)” value was “high polyreactivity”.
With “QVQLVESGGGLVQAGGSLRLICAASGRTFDHNAMGWYRQAPGKERELVAAITWSGGITDYADSVKRPFTISRDNAKNTVYLQMNSLKPEDTAVWGQGTQVTVSS” the “polyreactivity (PSR sort gate)” value was “low polyreactivity”.
With “QVQLVESGGGLVQAGGSLRLSCAASGSIVYYYGMGWYRPAPGKETELVAAISTGGSTYYADSVKGRFTISRDKAKKTVYLQMNSLKPEDTADFYCSADYYTQWQTRYDYWGQGTQVTVSS” the “polyreactivity (PSR sort gate)” value was “low polyreactivity”.
In the case of “QVQLVESGGGLVQAGGSLRLSCAASGSIFYGNAMGWYRQAPGNERESVAGITGSGSRTYYADSVKGRFTISRDNAKITVYLQMNSLKAEDTAVYYCARLTRTSRGLYDYWGQGTQVTVSS”, the “polyreactivity (PSR sort gate)” value is reported as “high polyreactivity”.
In the case of “QVQLVESGGGLVQAGGSLRLSCAASGLIFSCNAMGWYRQAPGKERELVASISYSGGRTYYADSVKGRFTISRDNAKNTVYLQMNSLKPEDTAVYYCAADTNATTDPEMDYWGQGTQVTVSS”, the “polyreactivity (PSR sort gate)” value is reported as “low polyreactivity”.
For “QVQLVESGGGLVQAGGSLRLSCAASGRTFGVYAMGWYRQAPGKDSELVEAINNGGSTNYADSVKGRFTISRDNAKNTVYLQINSLKPEDTAVYNCNAVVGYRHWPYYRGEYDYWGQGTQVTVSS”, the “polyreactivity (PSR sort gate)” value was “low polyreactivity”.
With “QVQLVESGGGLVQAGGSLRISCAASGSTFGSYTMGWYRQAPGKERELVAAIRGGGSTYYADSVKGRFTISRDNAKNTVYLQMNSLKPEDTAVYYCAALSPRRYNPRYGFDYCGQGTQVTVSS” the “polyreactivity (PSR sort gate)” value was “high polyreactivity”.
In the case of “QVQLVESGGGLVEAGGSLRLSCAASGSIFARYAMGWTRQAPGKERELVAAITSRGGSTYADSVKGRFTISRDNAKNTVFLQMISLIPEDTAVYYCAAATLWYYRYWTSYDYWGQGTQVTVSS”, the “polyreactivity (PSR sort gate)” value is reported as “high polyreactivity”.
For “QVQLVESGGGLVQAGGSLRLSCAASGRTFGDNAMGWYRQAPGKERELVAAISSGDSTNYADSVKGRFTISRDNAKNTVYLQMNSLKPEDTAVYYCAAEFSHTYVYVDLDYWGQGTQVTVSS”, the “polyreactivity (PSR sort gate)” value was “low polyreactivity”.
With “QVQLVESGGGLVQAGGSLRLSCAASGRIFYYYAMGWYRQAPGKERELVAAISWRGTSTYYADSVKGRFTISRDNAKNTVYLQMNSLKPEDTAVYYCAARYTKGMYYWGQGTQVSVSS” the “polyreactivity (PSR sort gate)” value was “high polyreactivity”.
With “QVQLVESGGGLVQAGGRLRLSCAASGRIFGVYAMGWYRQAPGKEREFVASITRGGGRTYYADSVKGRFTISRDNAKNTVYLQMNSLKPEDTAVYYCNAVVNSYPYYYWGQGTQVTVSS” the “polyreactivity (PSR sort gate)” value was “high polyreactivity”.
In the case of “QFQLVESGGGLVQAGGSLRLSCAASGRILYPNTMGWYRQAPGKEREVVAAISGSGSRTYYADSVKGRFTISRDNAKNNVYLQMNSLKPEDTAVYYCADRGDGTVGVSSPGKRRHYYWGQGTQVTVSS”, the “polyreactivity (PSR sort gate)” value is reported as “high polyreactivity”.
With “QVQLVESCGGLVQAGGSHRLSCAASGSTFAYNDMGWYRQAPGKERELVADIRSGGNTNYADSVKGRFTISRDNAKNTVYLQMNSLKPEDTAVYYRATDGYRIDVYHPDYRYDYWGQGTQVTVSS” the “polyreactivity (PSR sort gate)” value was “low polyreactivity”.
For “QVQLVESGGGFVQAGGSLRLSCAASGSTFHDNAMGWYRQAPGKERELVAGISISGVSTFYADSVKGRFTISRDYAKNTVYLQMNSLKPEDTAVYYCTADDVSAYQRFDYWGQGTQVTVSS”, the “polyreactivity (PSR sort gate)” value was “low polyreactivity”.
With “QVQLVESGGGLVQAGGSLRLSCAASGNTFVYNDMGWYRQAPGKERELVADIRYSGSTYYADSVKGRFTISRDNAKNTVYLQMNSLKPEDTAVYYCAKAYYVLSWMGYWGQGTQVTVSS” the “polyreactivity (PSR sort gate)” value was “low polyreactivity”.
With “QVQLVESGGGLVQAGGSLRLSCAAYGRIFFYYVMGWYRQAPGNERELVAGITRGGISNYADSVKGRFTISRDNAKNTVYLQMNSLKPEDTAVYYCAAAYYRDSDRRYNYWGQGTQVTVSS” the “polyreactivity (PSR sort gate)” value was “high polyreactivity”.
With “QVQLVESGGGLVQAGGSLRLTCAASGRTFYVYAMGWYRQAPGKERELVAAITRSGDSTYADSVKGRFTISRDNAKNTVYLQMNSLKPEDTAVYYCSKRYTHYSFRRFDYWGQGTQVTVSS” the “polyreactivity (PSR sort gate)” value was “low polyreactivity”.
For “QVQLVESGGGLVQAGGSLRLSCAASGGTFAVYAMGWYRQAPGKERELVAAIDSGGRTNYADSVKGRFTISRDNAKNTVYLQMNSLKPEDTAVYYCAADGGGQYVRYDYWGQGTQVTVSS”, the “polyreactivity (PSR sort gate)” value was “high polyreactivity”.
For “QVQLVESGGGLDQAGGSLRLSCAASGLTFPTNARGWYRQAPGKEREFVAAITSRGGTTYYADSVKGRFTISRDNAKNTVYLQMNSLKPEETAVYYCGALSVTIYQYDSYGYWGQGTQVSVSS”, the “polyreactivity (PSR sort gate)” value was “low polyreactivity”.
In the case of “QVQLVESGGGLVQAGGSLRLSCAASGLTLWTYAMGWYIQAPGQERELVARIRSGGSTYYADSVKGRFTISRDNAKNTVYLQMNSLKPEDTAVYYCAADLQSRVDYWGQGTQVTVSS”, the “polyreactivity (PSR sort gate)” value is reported as “high polyreactivity”.
With “QVQHVESGGGLVQAGGSLRLSCAASGFIFPTYAMGWYRQAPGKERELVATITTNAGGTHYADSVKGRFTISRDNAKNTVYLQMNSLKPEDTAVYYCAAKQYRPKQRKYWTRIYDYWGQGTQVTVSS” the “polyreactivity (PSR sort gate)” value was “low polyreactivity”.
In the case of “QVQLEESGGGLVQAGGSLRLSCAASGSNFSRYAMGWYRQAPGKERELVAAISWAGNTYYADSVKGRFTISRDNAKNTVYLQMNSLKPEDTAVYYCNADRVRYLFTRYDYWGQGTQVTVSS”, the “polyreactivity (PSR sort gate)” value is reported as “high polyreactivity”.
With “QVQLVESGGGLVQAGGSLRLSCAASGFIFPSYAMGWYRQAPGKERELVAAISWTGGTYYADSEKGRFTISRDNAKNTVYFQMNSRKPEDTAVYYCAVRYKRKGSGYRTNAYDYWGQGTQVTVSS” the “polyreactivity (PSR sort gate)” value was “high polyreactivity”.
In the case of “QVQLVESGGGLVQAGGSLRFSCAASGSIFKTNAIGWYRQAPGKERELVAAIRASGGSTYYADSVKGRFTISRDNAKNTVYLQMNSLKPEDTAVYYCAARVSGSRKYYYWGQGTQVTVSS”, the “polyreactivity (PSR sort gate)” value is reported as “high polyreactivity”.
For “QVQLVESGGGLVQAGGSLRLSCAASGSTFWVYTMGWYRQAPGKERELVAAISYGGGRTYYADSVKGRFTISRDNEKNTVYLQMNSLKPEDTAVYYCNKDYWRDVAQDVLDGYEYWGQGTQVTVSS”, the “polyreactivity (PSR sort gate)” value was “low polyreactivity”.
With “QVQLVESGGRLVQAGGILRLSCAASGRIFSANAMGWYRQAPGKERELVAAITSSGGSTYYADSVKGRFTISRDNAKNTVYLQMNSLKPEDTAVYYCAAESAAYGGGTSDAGYESDYLGQGTQVTVSS” the “polyreactivity (PSR sort gate)” value was “low polyreactivity”.
For “QVQLVESGGGLVQAGGSLRLSCAASGFTFKWYTMGWYRQAPGKERELVAGISRRGGSTYYADSVKGRFTISRDNAKNTVYLQMNSLKPEDTAVYYCAARYTWRRAGYYYWGQGTQVTVSS”, the “polyreactivity (PSR sort gate)” value was “high polyreactivity”.
For “QVQLVESGGGLVQAGGRLRLSCAASGRIFRRYAMGWYRQAPGKERELVAAITSSGTSTHYADSVKGRFTISRDNAKNTVYLQMNSLKPEDTAVYYCAARYSTYPWYNYCGQGTQVTVSS”, the “polyreactivity (PSR sort gate)” value was “high polyreactivity”.
With “QVQLVETGGGLVQAGGRLRLSCAASGITFYFNTMGWYRPAPGKERELVASISGGSSTYYADSVKGRFPISRDNAKNTVYLQMISLKREDTAVYYCNAQGSLFRGWFDYDYWGQGTQVTVSS” the “polyreactivity (PSR sort gate)” value was “low polyreactivity”.
In the case of “QVQLVESGGGLVQAGGSLRLSCAASGYILYPYAMGWYRQAPGKERELVAAIRQRGGSTYYADSVKGRFTISRDNAKNTVYLQMNSLKPEDTAVYYCAAYLSPKRALTRGYGYWGQGTQVTVSS”, the “polyreactivity (PSR sort gate)” value is reported as “high polyreactivity”.
In the case of “QVQLEESGGGLVKEGGSLRLSCAASGSIFPINAMGWYRQAPGKERELVAAINGSGSTKYADSVKGRFTISRDNAKNTVYLQMNSLKPEDTAVYYCSTRGLRWAKYGYWGQVTQVTVSS”, the “polyreactivity (PSR sort gate)” value is reported as “high polyreactivity”.
In the case of “QVQLVESGGCLVQAGGSLRLSCAASGSIFAAYTMGWYRQAPGKERELVAAISVSTVSTYYADSVKGRFTISRDNAKNTVYLQMNSLKPEDTAVYYCNADATDSYPEKDEHDSWGQGTQVTVSS”, the “polyreactivity (PSR sort gate)” value is reported as “low polyreactivity”.
For “QVQLVESGGGLVQAGGSLRLSCAASGITSGNNALGWYRQAPGKERELVAALSWTGGSTYYADSVKGRFTISRDNAKNTVYLQMNSLKPEDTAVYYCAAKGLRYRDIDYDYWGQGTQVTVSS”, the “polyreactivity (PSR sort gate)” value was “low polyreactivity”.
With “QVQLVESGGGLVQAGGSLRLSCAASGYTITQNAMGWYRQAPGKERELVASITSGGSTDYADSVKGRFTISRDNAKNTVYLQMNSLKPEDTAVYYCAAGTATDVASIGATKDYDYWGQGTQVTVSS” the “polyreactivity (PSR sort gate)” value was “low polyreactivity”.
In the case of “QVQLVESGGGLVQAGGSLRLSCAASGSTFAANTMGWYRQAPGKERELVAAITVRGGSTYYADSVKGRFTISRDNAKNTVYLLMQSLKPEDTAVYYCAAERPPYGYLVVGYVSTQYYYWGQGTQVTVSS”, the “polyreactivity (PSR sort gate)” value is reported as “low polyreactivity”.
For “QVQLVESGGGLVQAGGSLRLSCAASGSTLGSNAMGWYRQAPGKERELVAAITWSGGTTYYADSVKGRFTISRDNAKNTVYLQMISLKPEDTAVYYCATGQSVIYRYEYWGQGTKVTVSS”, the “polyreactivity (PSR sort gate)” value was “low polyreactivity”.
In the case of “QVQLVESGGGLVQAGGSLRLSCAASGSIFPTYAMGWYRQAPGKEWELVAAIRGDGSTNYADSVKGRFTISRDNAKNTVYLQMNSLKPEDTAVSYCAAVSSEYVFRYGGYWGQGTQVTVSS”, the “polyreactivity (PSR sort gate)” value is reported as “low polyreactivity”.
With “QVQLVDSGGGLVQAGGSLRLSCAASGLIFDSYDMGWYRQEPGKERELVSPIRRNGGSTYYADSVKGRFTISRDNAMYTVYLQMNSLKPEDTAVYYCAVDNSGYCGVYWVKMDYWGQGSQVTVSS” the “polyreactivity (PSR sort gate)” value was “low polyreactivity”.
With “QVQLVESRGCLVQPGGSLLLSCAASGIIFGHYVMGWYRQAPGKERELVAAISSRGGNTYYADSVKGRFTISRDNAKNTVYLQMNSLKPEDTAVYYCAADRYATPMDYWGQGTQVTVSS” the “polyreactivity (PSR sort gate)” value was “high polyreactivity”.
With “QVQLVESGGALVQAGGSLRISCAASGRIFDGYTMGWSRQAPGKERELVAAITSGGGSTYYADSVKGRFTISRDNAKNTVYLQMNSLKPEDTAVYYCAAYRRNTYWGQGTQVTVSS” the “polyreactivity (PSR sort gate)” value was “high polyreactivity”.
With “QVQLVESGGGLVQAGGSLRLSCAASGSIFTGYAMGWYRQAPGKDRELVAGISWGGTSTYYADSVKGRFTISRDTAKNTVYLQMNSLKPEDTAVYYCSAVRGKYGYLTTPYWFDYWGQGTQVTVSS” the “polyreactivity (PSR sort gate)” value was “high polyreactivity”.

Reference: the nanobody polyreactivity screen of Harvey et al. (2022)
